In publication PMC4058850, “The Bifunctional Pyruvate Decarboxylase/Pyruvate Ferredoxin Oxidoreductase from Thermococcus guaymasensis” (Archaea, 2014):
Each block holds one molecule with its values, some of them ahead of it.

Key:
PfPDC/POR [1] = target: T1, PfPDC/POR (Pyrococcus furiosus, UniProt Q51804+Q51805); experiment: POR activity, pyruvate- and CoA-dependent methyl viologen reduction; type: biochemical; details: POR reaction; 80°C, pH 8.4, anaerobic; 100 μM CoASH, 5 mM pyruvate
T1 construct: gene porA; native, purified anaerobically from P. furiosus cells; no tag; dimer of heterotetramers, about 260 kDa; with Pyruvate synthase subunit PorD; Pyruvate/ketoisovalerate oxidoreductases common subunit gamma

TgPDC/POR [2] = target: T2, TgPDC/POR (Thermococcus guaymasensis, UniProt W8CQB2+W8CQR1); experiment: PDC activity with desulfo-CoA substituted for CoA; type: biochemical; details: PDC reaction; 80°C, anaerobic
T2 construct: gene porA; native, purified anaerobically from T. guaymasensis cells; no tag; dimer of heterotetramers, 258 kDa by gel filtration; with Pyruvate synthase subunit PorD; Pyruvate/ketoisovalerate oxidoreductases common subunit gamma
T2 sequence (W8CR61 1-105 partner, one chain of several): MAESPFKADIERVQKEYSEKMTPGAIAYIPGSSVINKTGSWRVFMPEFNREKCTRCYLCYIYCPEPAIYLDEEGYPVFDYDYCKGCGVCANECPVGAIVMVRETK
T2 sequence (W8CQB1 1-185 partner, one chain of several): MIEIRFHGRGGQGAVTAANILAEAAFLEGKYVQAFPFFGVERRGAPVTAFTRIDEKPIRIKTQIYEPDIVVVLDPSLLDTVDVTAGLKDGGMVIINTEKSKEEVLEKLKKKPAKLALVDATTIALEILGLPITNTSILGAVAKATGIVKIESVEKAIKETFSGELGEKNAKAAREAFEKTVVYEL

TgPDC/POR [3] = target: T2, TgPDC/POR; experiment: POR activity; type: biochemical; details: POR reaction; concentration not given
PfPDC/POR [4] = target: T1, PfPDC/POR; experiment: PDC activity with desulfo-CoA substituted for CoA; type: biochemical; details: PDC reaction; 80°C, anaerobic
[5] = target: bifunctional pyruvate decarboxylase/pyruvate ferredoxin oxidoreductase from Thermococcus guaymasensis, heterotetramer of PorA, PorB, PorD and Por/VorG (Thermococcus guaymasensis (endogenous in DSM 11113)) (UniProt W8CQB2); experiment: SEC; native enzyme purified from T. guaymasensis (about 1 mg) on HiLoad Superdex-200 in buffer E (50 mM Tris pH 7.8, 5% glycerol, 100 mM KCl, 2 mM DTT, 2 mM SDT), 2.5 mL/min, calibrated with protein standards; SDS-PAGE of the enzyme after the column; apparent Mr 258,000
[6] = target: the molecule itself; experiment: SEC; native enzyme from P. furiosus; HiLoad Superdex-200 in buffer E as a step of the purification; native molecular weight of approximately 260 kDa told in the discussion, how it was estimated is not told for this enzyme
purified protein = substrate: CC(=O)C(=O)O; experiment: purified protein; type: biochemical, Thermococcus guaymasensis; details: POR (oxidative decarboxylation) reaction, 0.1 mM CoA, 1 mM MV, 0.4 mM TPP, Mg2+, pH 8.4 (optimal pH), 80°C, anaerobic
[7] = substrate: CC(=O)C(=O)O; experiment: PDC activity, acetaldehyde as DNPH hydrazone by RP-HPLC; type: biochemical, Thermococcus guaymasensis; details: PDC (nonoxidative decarboxylation) reaction, 1 mM CoA, 0.1 mM TPP, Mg2+, optimal pH (9.5), 80°C, anaerobic
Text: PDC activity, acetaldehyde as DNPH hydrazone by RP-HPLC on TgPDC/POR

Molecule: CC(C)(COP(=O)(O)OP(=O)(O)OC[C@H]1O[C@@H](n2cnc3c(N)ncnc32)[C@H](O)[C@@H]1OP(=O)(O)O)[C@@H](O)C(=O)NCCC(=O)NCCS [coenzyme A]
- POR activity, pyruvate- and CoA-dependent methyl viologen reduction (PfPDC/POR [1]): The pyruvate- and coenzyme A-dependent reduction of the methyl viologen was measured for POR activities

- % of activity with CoA (TgPDC/POR [2]): ~ 75%
- % of activity with CoA (PfPDC/POR [4]): ~ 80%
Molecule: CCNC(=O)CCNC(=O)[C@H](O)C(C)(C)COP(=O)(O)OP(=O)(O)OC[C@H]1O[C@@H](n2cnc3c(N)ncnc32)[C@H](O)[C@@H]1OP(=O)(O)O [desulfo-CoA]
- completely inhibitory (TgPDC/POR [3]): desulfo-CoA, an analogue of CoA, was completely inhibitory for the oxidation (POR) reaction

- stoichiometry N [5]: 2
Molecule: bifunctional pyruvate decarboxylase/pyruvate ferredoxin oxidoreductase from Thermococcus guaymasensis, heterotetramer of PorA, PorB, PorD and Por/VorG (from UniProt W8CQB2 1-331; W8CR61 1-105) (complex)

B1: bifunctional pyruvate decarboxylase/pyruvate ferredoxin oxidoreductase from Pyrococcus furiosus, heterotetramer (complex)
chain 1: MPIRKVMKANEAAAWAAKLAKPKVIAAFPITPSTLIPEKISEFVANGELDAEFIKVESEHSAISACVGAAAAGVRTFTATASQGLALMHEILFIAAGMRLPIVMAIGNRALSAPINIWNDWQDTISQRDTGWMQFYAENNQEALDLILIAYKVAEDERVLLPAMVGFDAFILTHTVEPVEIPDQEVVDEFLGEYEPKHAYIDPARPITQGSLAFPAHYMESRYTVWEAMERAKKVIDEAFAEFEKKFGRKYQKIEEYKTEDADIIFVTMGSLAGTLKEWIDKKREEGYKVGAAKITVYRPFPVEEIRELAKKAKVLAFLEKNITIGLYGAVFTDASAALINESEKPLMVDFIVGLGGRDVTFNQLDEALEIAEKALKEGKVENPINWIGLRWELVK
chain 2: MAVRKPPITTREYWAPGHAACAGCGCATALRLATKALSEAMEEKYGDPNAFAIAHATGCMEVVSAVFPYTAWKAPWIHVAFENAAAVASGIEAAWKKLGRKGKILAIGGDGGTADIGLQALSGMLERWHNVLYLMYDNEAYMNTGIQRSSSTPYGAWTTTSPPGKYSVGEDKPKKWVALIAAAHQIPYVATASIGNPLDFVRKIKKAGKIDGPAFVQVLCTCPTGWRSPLEKGVEIARLAIETGIWPLFEIENGDIWNIKIQPPGGGAKVYKEGNRVVRIEFKKPIEEYLKLQGRFKHLFKRPEAIEELRNQVKAMWKVLGVEAILPRPEE
chain 3: MIEVRFHGRGGQGAVTAANILAEAAFLEGKYVQAFPFFGVERRGAPVTAFTRIDNKPIRIKTQIYEPDVVVVLDPSLLDAVDVTAGLKDEGIVIVNTEKSKEEVLEKLKKKPKKLAIVDATTIALEILGLPITNTAILGAVAKATGLVKIESIEEAIKDTFSGELGEKNARAAREAYEKTEVFEL
chain 4: MAESPFKADIERAQKELSEKMTPGAIVYIPGSSVINKTGSWRVFKPEFNRDKCVRCYLCYIYCPEPAIYLDEEGYPVFDYDYCKGCGICANECPTKAIEMVREVK
notes: alpha subunit (PorA) of pyruvate ferredoxin oxidoreductase, Pyrococcus furiosus; beta subunit (PorB) of pyruvate ferredoxin oxidoreductase, Pyrococcus furiosus; gamma subunit (Por/VorG) of pyruvate ferredoxin oxidoreductase, Pyrococcus furiosus; delta subunit (PorD) of pyruvate ferredoxin oxidoreductase, Pyrococcus furiosus; One heterotetramer (one copy of each subunit); the native enzyme is …
- stoichiometry N [6]: 2

B2: TgPDC/POR (Thermococcus guaymasensis) (protein)
chain 1: MPIRTVMKANEAAAWAAKLAKPKVIAAFPITPSTLVPEKISEFVANGELDAEFIKVESEHSAISACVGASAAGVRTFTATASQGLALMHEVLFIAAGMRLPIVMAIGNRSLSAPINIWNDWQDSISERDTGWLQFYAENNQEALDLILIAYKVAEDERVLLPAMVGFDAFILTHTVEPVEIPDQELVDEFLGEYEPKHAYLASARPLTQGTLAFPAHYMEARYTVWQANENAKKVIDEVFAEFEKRFGRKYQKVEEYRTDDAEIIFVTMGSLAGTVKEYVDHLREKGIKAGAAKLTVYRPFPIEEVRELAKKAKVLALLEKNVTFSVGGALFQDFSRALINQEEKPKIVDFILGLGGRDVTFKDLDEALAIAQKALNGEKVDEVNWIGLRKEIL
chain 2: MAVRKPPITTREYWAPGHAACAGCGCAIALKLATKAFSEAMEEKYGDPNAFAIAQATGCMEVVSAVFPYTAWKVPWVHVAFENAAAAASGVEAAWKKLGRKGKILAIGGDGGTADIGMQALSGMLERRHNVVYLMYDNEAYMNTGIQRSSSTPYGAWTTTSPPGKYSIGEDKPKKWVALIAAAHQVPYVATASIGNPFDFVRKMKKAAKVDGPAFVQVHCTCPTGWKSPLEKGVEIARLAIETGVWPLFEIENGDFHNIKIQPPGGGAKVTREGGRIVAIEFKKPIEEYLKLQGRFKHLFKQPEAIDVMREQIKAMWKVLGVDVTLPKPEE
notes: native, purified anaerobically from T. guaymasensis cells; no tag; dimer of heterotetramers, 258 kDa by gel filtration; with Pyruvate synthase subunit PorD; Pyruvate/ketoisovalerate oxidoreductases common subunit gamma
- Km (purified protein): 530 ± 30 µM
- Vmax (purified protein): 18 µmol/min/mg
- Km [7]: 250 ± 50 µM
- Vmax [7]: 3.8 µmol/min/mg
